{"source": "paper PMC6085346", "about": "“A nuclear-encoded protein, mTERF6, mediates transcription termination of rpoA polycistron for plastid-encoded RNA polymerase-dependent chloroplast gene expression and chloroplast development”", "binders": {"B1": {"name": "probe A (rpoA 3'-end, 122 bp) (dsDNA)", "DNA 1": "AATTTCTATTTTCCAGTCGAACCCATTTTAATTAATTAATTAAATTAATTAGAATTAGATATGTATCTAGGGAGAATTCATTTGGAAATGACTACTCCCTAGATACCTCCCTAGATACCCAC", "DNA 2": "GTGGGTATCTAGGGAGGTATCTAGGGAGTAGTCATTTCCAAATGAATTCTCCCTAGATACATATCTAATTCTAATTAATTTAATTAATTAATTAAAATGGGTTCGACTGGAAAATAGAAATT"}}, "key": {"[1]": {"target": "T1, MBP-mTERF6.1 (without transit peptide) (Arabidopsis thaliana, UniProt Q9SZL6 25-333)", "T1 sequence": "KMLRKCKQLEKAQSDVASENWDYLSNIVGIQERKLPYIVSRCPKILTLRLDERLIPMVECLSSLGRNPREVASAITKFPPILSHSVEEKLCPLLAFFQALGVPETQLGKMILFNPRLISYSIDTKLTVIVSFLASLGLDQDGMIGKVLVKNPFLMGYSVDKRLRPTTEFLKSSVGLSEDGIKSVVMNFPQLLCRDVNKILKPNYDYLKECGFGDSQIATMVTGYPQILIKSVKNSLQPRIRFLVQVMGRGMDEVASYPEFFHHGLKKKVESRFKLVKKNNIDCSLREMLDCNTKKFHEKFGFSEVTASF", "experiment": "EMSA; 5 mM MgCl2; stronger shift than probe A; weakened by 1-, 2-, 8-fold competitor; EMSA 20 uL: LightShift binding buffer, 5 mM MgCl2, 1 mM EDTA, 2.5% glycerol, 0.05% NP-40, 50 ng/uL poly(dI-dC), 20 fmol probe (printed 'fmal'), 0.5 ug protein", "details": "protein: recombinant; tags: N-terminal MBP (pMAL-c5X); label: 5' biotin"}, "[2]": {"target": "T1, MBP-mTERF6.1 (without transit peptide)", "experiment": "EMSA; 5 mM MgCl2; shift greatly reduced by 200-fold unlabeled probe A; EMSA 20 uL: LightShift binding buffer, 5 mM MgCl2, 1 mM EDTA, 2.5% glycerol, 0.05% NP-40, 50 ng/uL poly(dI-dC), 20 fmol probe (printed 'fmal'), 0.5 ug protein", "details": "protein: recombinant; tags: N-terminal MBP (pMAL-c5X); label: 5' biotin"}}, "data": [{"binder": "AATTTCTATTTTCCAGTCGAAC (ssDNA)", "note": "[probe B (22 nt, single strand)]", "values": [{"measurement": "binding result", "setting": "[1]", "value": "binds"}]}, {"binder": "B1", "values": [{"measurement": "binding result", "setting": "[2]", "value": "binds"}]}]}
